Results from patent US20220411475A1.

Tests used:
[1] = molecular target: myristoylated rPreS1/PreS2 protein (Hepatitis B virus (ayw)) (UniProt P03138); assay: solid-phase ELISA, antigen on plate
[2] = molecular target: PreS1 synthetic peptide p(21-42) (Hepatitis B virus (ayw)); assay: solid-phase ELISA, antigen on plate
[3] = molecular target: PreS1-WHc VLP-1.1 (21-43) (Woodchuck hepatitis virus; Hepatitis B virus (ayw)); assay: solid-phase ELISA, antigen on plate
[4] = molecular target: purified HBV virions (Hepatitis B virus); assay: solid-phase ELISA, antigen on plate
[5] = molecular target: recombinant (r) PreS1/PreS2 protein (Hepatitis B virus (ayw)) (UniProt P03138); assay: solid-phase ELISA, antigen on plate
[6] = molecular target: PreS1 synthetic peptide p(1-36) (Hepatitis B virus (ayw)); assay: solid-phase ELISA, antigen on plate
[7] = molecular target: PreS1-WHc VLP-1.1+ (19-43) (Woodchuck hepatitis virus; Hepatitis B virus (ayw)); assay: solid-phase ELISA, antigen on plate
[8] = molecular target: PreS1-WHc VLP-1.4+ (15-34) (Woodchuck hepatitis virus; Hepatitis B virus (ayw)); assay: solid-phase ELISA, antigen on plate
[9] = molecular target: combination of VLPs 1.6+1.9; assay: solid-phase ELISA, antigen on plate
[10] = molecular target: PreS1-WHc VLP-1.6 (15-40); assay: solid-phase ELISA, antigen on plate
[11] = molecular target: HDV particles coated with HBV envelope proteins (L/M/S HBsAg/ay) (Hepatitis B virus genotype D, subtype ayw) (UniProt P03138); assay: cell-based or functional assay
[12] = molecular target: PreS1-WHc VLP-1.5 (1-34) (Woodchuck hepatitis virus; Hepatitis B virus (ayw)); assay: solid-phase ELISA, antigen on plate
[13] = molecular target: PreS1-WHc VLP-1.3+ (1-25) (Woodchuck hepatitis virus; Hepatitis B virus (ayw)); assay: solid-phase ELISA, antigen on plate
[14] = molecular target: PreS1-WHc VLP-1.9 (83-106-NH2/1-25-loop); assay: solid-phase ELISA, antigen on plate
[15] = molecular target: PreS1-WHc VLP-1.4 (15-31) (Woodchuck hepatitis virus; Hepatitis B virus (ayw)) (UniProt P0C6J2); assay: solid-phase ELISA, antigen on plate
[16] = molecular target: PreS1 synthetic peptide p(18-25) (Hepatitis B virus (ayw)); assay: solid-phase ELISA, antigen on plate

Row | Substance | Min binding conc. [1] [ng/mL] | Min binding conc. [2] [ng/mL] | Min binding conc. [3] [ng/mL] | Min binding conc. [4] [ng/mL] | Min binding conc. [5] [ng/mL] | Min binding conc. [6] [ng/mL] | Min binding conc. [7] [ng/mL] | Min binding conc. [8] [ng/mL] | Min binding conc. [9] [ng/mL] | Min binding conc. [10] [ng/mL] | higher stringency neutralization assay, complete neutralization [11] [µg/mL] | neutralization of HDV-HBV infection of HepaRG cells (intracellular HDV RNA) [11] [µg/mL] | Min binding conc. [12] [ng/mL] | Min binding conc. [13] [ng/mL] | Min binding conc. [14] [ng/mL] | Min binding conc. [15] [ng/mL] | Min binding conc. [16] [ng/mL]
1 | PreS1-specific Mab KR-127 (antibody) | 1.6 | 1.6 | 1.6 | 75 | 1.6 | 1.6 | 1000 | 8 | 1.6 | 1.6 |  |  |  |  |  |  | 
2 | PreS1-specific Mab 18/7 (antibody) | 0.3 |  |  | 2 | 0.3 | 1.6 | 0.3 | 8 | 0.3 | 0.3 | > 5 | < 0.05 | 0.3 | 1.6 | 1.6 | 0.3 | 8
